Drawing on the supplement of paper PMC10598134, this text covers collision cross section for 60 sequences.

This series in a line: collision cross section of modified peptide (TIMS, N2, iRT-aligned); higher = larger / more extended gas-phase ion. As for the experimental part: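 1/K0 was aligned run-wise to spiked iRT peptides and converted to CCS in N2 (Mason-Schamp). Values are the mean of 1-3 technical replicates for the most abundant feature at each charge state.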
The mark [1] stands for this setting: charge state: 2, modification: Dimethyl (K).
Setting [2] is: charge state: 3, modification: Dimethyl (K).
Setting [3] is: charge state: 2, modification: Formyl.
[4] abbreviates: charge state: 2, modification: Glutarylation.
Setting [5] is: charge state: 2, modification: GlyGly (K).
[6] abbreviates: charge state: 3, modification: GlyGly (K).
The mark [7] stands for this setting: charge state: 2, modification: Malonyl.
Setting [8] is: charge state: 2, modification: Methyl (K).
The mark [9] stands for this setting: charge state: 3, modification: Methyl (K).
Setting [10] is: charge state: 2, modification: Succinyl.
[11] abbreviates: charge state: 2, modification: Trimethyl (K).
Where [12] appears, read: charge state: 3, modification: Trimethyl (K).
[13] abbreviates: charge state: 2, modification: hydroxyisobutyryl.
Setting [14] is: charge state: 2, modification: Acetyl (K).
[15] abbreviates: charge state: 2, modification: Biotin.
Where [16] appears, read: charge state: 3, modification: Biotin.
Setting [17] is: charge state: 2, modification: Butyryl.
Where [18] appears, read: charge state: 2, modification: Crotonyl.
Setting [19] is: charge state: 2, modification: HexNAc (ST).
Where [20] appears, read: charge state: 3, modification: Acetyl (K).
Where [21] appears, read: charge state: 3, modification: Butyryl.
[22] abbreviates: charge state: 3, modification: Citrullination (R).
The mark [23] stands for this setting: charge state: 2, modification: Nitro (Y).
The mark [24] stands for this setting: charge state: 3, modification: Nitro (Y).
Where [25] appears, read: charge state: 2, modification: Phospho (Y).
Where [26] appears, read: charge state: 3, modification: Phospho (Y).

± gives the standard deviation.

Regarding ASEALLKQLK [_ASEALLK(Dimethyl (K))QLK_], the collision cross section is, setting by setting: under setting [1], 366.02 ± 0.28 Å²; under setting [2], 439.24 ± 2.8 Å². For ASEALLKQLK [_ASEALLK(Formyl)QLK_], under setting [3], the collision cross section is recorded as 369.4 ± 0.89 Å². “ASEALLKQLK [_ASEALLK(Gluratylation)QLK_]” displayed a collision cross section under setting [4] of 377.97 ± 0.1 Å². For the sequence ASEALLKQLK [_ASEALLK(GlyGly (K))QLK_], the collision cross section reads like this: under setting [5], 378.14 ± 0.54 Å²; under setting [6], 443.25 ± 0.74 Å². Consider ASEALLKQLK [_ASEALLK(Malonyl)QLK_], for which, under setting [7], the collision cross section is given as 374.73 ± 0.63 Å². Regarding ASEALLKQLK [_ASEALLK(Methyl (K))QLK_], the collision cross section under setting [8] is reported as 369.33 ± 0.7 Å² and the collision cross section under setting [9] is recorded as 450.1 ± 3.1 Å². As to ASEALLKQLK [_ASEALLK(Propionyl)QLK_], the collision cross section (charge state: 2, modification: Propionyl) is reported as 375.9 ± 0.65 Å².

ASEALLKQLK [_ASEALLK(Succinyl)QLK_] gave a collision cross section under setting [10] of 374.59 ± 0.24 Å². “ASEALLKQLK [_ASEALLK(Trimethyl (K))QLK_]”: the collision cross section reads like this: under setting [11], 371.28 ± 0.027 Å²; under setting [12], 439.12 ± 1.8 Å². Sequence “ASEALLKQLK [_ASEALLK(hydroxyisobutyryl)QLK_]” yielded a collision cross section under setting [13] of 382.21 ± 0.28 Å². For the sequence “ASNAAVKLAESK [_ASNAAVK(Acetyl (K))LAESK_]”, under setting [14], the collision cross section is reported as 371.36 ± 0.81 Å².

Regarding ASNAAVKLAESK [_ASNAAVK(Biotin)LAESK_], the collision cross section under setting [15] is listed as 402.96 ± 11 Å² and the collision cross section under setting [16] is listed as 464.87 Å². With ASNAAVKLAESK [_ASNAAVK(Butyryl)LAESK_], the collision cross section under setting [17] is recorded as 375.52 ± 1.2 Å². ASNAAVKLAESK [_ASNAAVK(Crotonyl)LAESK_]: the collision cross section under setting [18] was 375.99 ± 0.26 Å².

On to “ASNAAVKLAESK [_ASNAAVK(Dimethyl (K))LAESK_]”, for which the collision cross section was found to be 387.86 ± 0.56 Å² under setting [1] and 452.98 ± 1.6 Å² under setting [2]. Under setting [3], ASNAAVKLAESK [_ASNAAVK(Formyl)LAESK_] returned a collision cross section of 365.07 ± 0.39 Å². As to “ASNAAVKLAESK [_ASNAAVK(Gluratylation)LAESK_]”, under setting [4], the collision cross section amounted to 379.86 ± 0.1 Å². Consider “ASNAAVKLAESK [_ASNAAVK(GlyGly (K))LAESK_]”, for which the collision cross section is, setting by setting: under setting [5], 395.25 ± 1.5 Å²; under setting [6], 457.62 ± 1.1 Å². Sequence ASNAAVKLAESK [_ASNAAVK(Malonyl)LAESK_] displayed a collision cross section under setting [7] of 371.16 ± 0.62 Å². Regarding “ASNAAVKLAESK [_ASNAAVK(Methyl (K))LAESK_]”, the collision cross section runs as follows: under setting [8], 380.84 ± 0.65 Å²; under setting [9], 450.44 ± 4.8 Å².

Consider ASNAAVKLAESK [_ASNAAVK(Succinyl)LAESK_], for which the collision cross section under setting [10] was 372.84 ± 0.87 Å². Take “ASNAAVKLAESK [_ASNAAVK(Trimethyl (K))LAESK_]”: the collision cross section under setting [11] worked out at 392.01 ± 0.62 Å² and the collision cross section under setting [12] turned out to be 456.46 ± 2.4 Å². “ASNAAVKLAESK [_ASNAAVK(hydroxyisobutyryl)LAESK_]”: under setting [13], the collision cross section amounted to 376.83 ± 0.8 Å². The sequence ASPPLFQSR [_ASPPLFQS(HexNAc (ST))R_] had a collision cross section under setting [19] of 363.62 ± 0.64 Å².

As to “ASTPGAAAQIQEVK [_AS(HexNAc (ST))TPGAAAQIQEVK_]”, the collision cross section under setting [19] turned out to be 409.94 ± 0.76 Å².

Take ATAVVDGAFK [_AT(HexNAc (ST))AVVDGAFK_]: under setting [19], the collision cross section is listed as 362.47 ± 0.64 Å². As for “ATVASSTQKFQDLGVK [_ATVASSTQK(Acetyl (K))FQDLGVK_]”, the collision cross section reads like this: under setting [14], 445.22 ± 2.2 Å²; under setting [20], 493.63 ± 0.33 Å². For the sequence “ATVASSTQKFQDLGVK [_ATVASSTQK(Biotin)FQDLGVK_]”, the collision cross section is given as 460.81 ± 1.3 Å² under setting [15] and 516.43 ± 0.96 Å² under setting [16]. Consider “ATVASSTQKFQDLGVK [_ATVASSTQK(Butyryl)FQDLGVK_]”, for which the collision cross section under setting [17] was found to be 453.04 ± 1.1 Å² and the collision cross section under setting [21] is recorded as 495.56 ± 1.9 Å². Take “ATVASSTQKFQDLGVK [_ATVASSTQK(Crotonyl)FQDLGVK_]”: the collision cross section is, setting by setting: under setting [18], 452.45 ± 0.83 Å²; (charge state: 3, modification: Crotonyl) 494.25 ± 1.6 Å². Take “ATVASSTQKFQDLGVK [_ATVASSTQK(Dimethyl (K))FQDLGVK_]”: the collision cross section by setting is: under setting [1], 461.58 ± 1.2 Å²; under setting [2], 471.81 ± 2.1 Å². On to “ATVASSTQKFQDLGVK [_ATVASSTQK(Formyl)FQDLGVK_]”, for which the collision cross section under setting [3] came to 442.05 ± 0.78 Å². For “ATVASSTQKFQDLGVK [_ATVASSTQK(Gluratylation)FQDLGVK_]”, the collision cross section was found to be 449.16 ± 1.1 Å² under setting [4] and 497.84 ± 1.7 Å² (charge state: 3, modification: Glutarylation). In the case of “ATVASSTQKFQDLGVK [_ATVASSTQK(GlyGly (K))FQDLGVK_]”, the collision cross section is, setting by setting: under setting [5], 480.31 ± 1.5 Å²; under setting [6], 500.25 ± 0.34 Å². “ATVASSTQKFQDLGVK [_ATVASSTQK(Malonyl)FQDLGVK_]”: the collision cross section under setting [7] was determined as 440.93 ± 1 Å². Turning to “ATVASSTQKFQDLGVK [_ATVASSTQK(Methyl (K))FQDLGVK_]”, the collision cross section is, setting by setting: under setting [8], 464.26 ± 2.2 Å²; under setting [9], 478.87 ± 3.4 Å². As to “ATVASSTQKFQDLGVK [_ATVASSTQK(Succinyl)FQDLGVK_]”, the collision cross section reads like this: under setting [10], 444.76 ± 1.1 Å²; (charge state: 3, modification: Succinyl) 493.48 ± 0.68 Å². As for “ATVASSTQKFQDLGVK [_ATVASSTQK(Trimethyl (K))FQDLGVK_]”, the collision cross section is, setting by setting: under setting [11], 475.64 ± 1.1 Å²; under setting [12], 477.04 ± 1.8 Å². Take “ATVASSTQKFQDLGVK [_ATVASSTQK(hydroxyisobutyryl)FQDLGVK_]”: the collision cross section by setting is: under setting [13], 453.68 ± 1.4 Å²; (charge state: 3, modification: hydroxyisobutyryl) 498.28 ± 1.6 Å². For “AVAITQSPSSVR [_AVAIT(HexNAc (ST))QSPSSVR_]”, the collision cross section under setting [19] came to 390.4 ± 0.13 Å². Regarding “AVPSSPAGSAARGR [_AVPSSPAGSAAR(Citrullination (R))GR_]”, the collision cross section is given as 365.96 ± 0.94 Å² (charge state: 2, modification: Citrullination (R)) and 481.37 ± 0.56 Å² under setting [22].

For “AVPSSPAGSAARGR [_AVPSSPAGSAAR(Methyl (R))GR_]”, the collision cross section (charge state: 2, modification: Methyl (R)) stood at 387.69 ± 1.4 Å² and the collision cross section (charge state: 3, modification: Methyl (R)) was 492.48 ± 1.5 Å². In turn, “AVSILPLLGHGVPRLPPGR [_AVSILPLLGHGVPR(Citrullination (R))LPPGR_]” registered a collision cross section under setting [22] of 569.33 Å². AYDATHLVK [_AY(Nitro (Y))DATHLVK_] came in with a collision cross section under setting [23] of 358.23 ± 0.55 Å² and a collision cross section under setting [24] of 417.35 Å². In turn, AYDATHLVK [_AY(Phospho (Y))DATHLVK_] gave a collision cross section under setting [25] of 354.67 ± 0.75 Å² and a collision cross section under setting [26] of 427.71 Å². As for AYGELPEHAK [_AY(Nitro (Y))GELPEHAK_], the collision cross section is, setting by setting: under setting [23], 361.5 ± 1.2 Å²; under setting [24], 445.86 ± 1.2 Å².

Consider AYGELPEHAK [_AY(Phospho (Y))GELPEHAK_], for which the collision cross section is, setting by setting: under setting [25], 362.96 ± 0.74 Å²; under setting [26], 450.05 Å². Regarding AYILNLVK [_AY(Nitro (Y))ILNLVK_], the collision cross section under setting [23] came out at 333.68 ± 0.72 Å².

Turning to AYILNLVK [_AY(Phospho (Y))ILNLVK_], the collision cross section under setting [25] stood at 363.28 ± 0.69 Å². Turning to AYPLADAHLTK [_AY(Nitro (Y))PLADAHLTK_], the collision cross section under setting [23] is listed as 382.67 ± 0.55 Å². On to “AYPLADAHLTK [_AY(Phospho (Y))PLADAHLTK_]”, for which the collision cross section reads like this: under setting [25], 380.31 ± 0.063 Å²; under setting [26], 465.22 ± 1 Å². CQGGQETQEYR [_CQGGQETQEY(Nitro (Y))R_] had a collision cross section under setting [23] of 375.36 ± 1.3 Å². Under setting [25], “CQGGQETQEYR [_CQGGQETQEY(Phospho (Y))R_]” displayed a collision cross section of 381.17 Å². The sequence “CSVLAAANPVYGR [_CSVLAAANPVY(Nitro (Y))GR_]” showed a collision cross section under setting [23] of 387.22 ± 0.17 Å². Under setting [25], “CSVLAAANPVYGR [_CSVLAAANPVY(Phospho (Y))GR_]” had a collision cross section of 407.91 ± 1.2 Å². CYYGSDTAGR [_CY(Nitro (Y))YGSDTAGR_] returned a collision cross section under setting [23] of 352.25 ± 0.8 Å². Sequence CYYGSDTAGR [_CY(Phospho (Y))YGSDTAGR_] had a collision cross section under setting [25] of 358.39 Å². On to “DAEAAEATAEGALKAEK [_DAEAAEATAEGALK(Acetyl (K))AEK_]”, for which the collision cross section under setting [14] was 451.64 ± 19 Å² and the collision cross section under setting [20] is reported as 539.19 ± 1.8 Å². Consider “DAEAAEATAEGALKAEK [_DAEAAEATAEGALK(Biotin)AEK_]”, for which the collision cross section runs as follows: under setting [15], 451.86 Å²; under setting [16], 551.51 Å². On to “DAEAAEATAEGALKAEK [_DAEAAEATAEGALK(Butyryl)AEK_]”, for which the collision cross section under setting [17] is 461.9 ± 22 Å² and the collision cross section under setting [21] worked out at 544.71 ± 2 Å².
